Changes are numbered by the printed parent chain. Where no end group is shown, it is not given here.
T1: human CRF receptor type 1 (human, UniProt P34998 24-415)
T1 sequence (looked up): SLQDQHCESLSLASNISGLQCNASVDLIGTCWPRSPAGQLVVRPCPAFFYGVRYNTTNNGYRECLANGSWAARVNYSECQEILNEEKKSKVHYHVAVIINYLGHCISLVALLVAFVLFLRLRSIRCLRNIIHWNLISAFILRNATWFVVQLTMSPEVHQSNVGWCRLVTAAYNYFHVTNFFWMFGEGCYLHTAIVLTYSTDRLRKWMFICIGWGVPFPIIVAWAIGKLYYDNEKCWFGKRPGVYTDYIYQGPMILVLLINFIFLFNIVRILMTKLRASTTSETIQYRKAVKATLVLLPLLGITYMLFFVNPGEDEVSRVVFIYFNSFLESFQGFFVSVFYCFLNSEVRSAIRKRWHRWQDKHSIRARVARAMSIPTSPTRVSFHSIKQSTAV

T2: endogenous CRF-R1 of primary rat anterior pituitary cells (rat, UniProt P35353 24-415)
T2 sequence (looked up): T1 sequence (looked up) with H6R, S9N, A13T, I16V, M153V, G163A, I209V, Y229H, H356R


Experiments:
[1] = molecular target: T1, human CRF receptor type 1; assay: cell-based or functional assay
[2] = molecular target: T2, endogenous CRF-R1 of primary rat …; assay: cell-based or functional assay

| Binder | cAMP in CHO cells stably expressing hCRF-R1 (EC50, nM) [1] [nM] | cAMP accumulation in primary rat anterior pituitary cells, EC50 [2] [nM] |
| --- | --- | --- |
| VILSLDVPIGLLRILLEQARYKAARNQAATNAQILAHV (peptide, UniProt Q99ML8 73-110, looked up) [Urocortin II (mouse)] | > 100 |  |
| IVLSLDVPIGLLQILLEQARARAAREQATTNARILARV (peptide, UniProt Q96RP3 72-109, looked up) [Urocortin II (human)] | > 100 |  |
| DDPPLSIDLTFHLLRTLLELARTQSQRERAEQNRIIFDSV (peptide, UniProt P55090 81-120, looked up) [Urocortin (rat)] |  | 2.3 |
| FTLSLDVPTNIMNLLFNIAKAKNLRAQAAANAHLMAQI-NH2 [Urocortin III (human)] | > 100 |  |
| FTLSLDVPTNIMNILFNIDKAKNLRAKAAANAQLMAQI-NH2 [Urocortin III (mouse)] | > 100 |  |

Reference: US20040143095A1 (RESEARCH DEVELOPMENT FOUNDATION, published 2004)
